For this data set, the target named is integrin beta1 (SinoBiological 10587-H08H1) (UniProt P05556 21-728). Description: fluorescence polarization.

Data on one molecule can be found in doi:10.1101/2022.07.28.501822.

integrin beta1 (SinoBiological 10587-H08H1), sequence (P05556 21-728): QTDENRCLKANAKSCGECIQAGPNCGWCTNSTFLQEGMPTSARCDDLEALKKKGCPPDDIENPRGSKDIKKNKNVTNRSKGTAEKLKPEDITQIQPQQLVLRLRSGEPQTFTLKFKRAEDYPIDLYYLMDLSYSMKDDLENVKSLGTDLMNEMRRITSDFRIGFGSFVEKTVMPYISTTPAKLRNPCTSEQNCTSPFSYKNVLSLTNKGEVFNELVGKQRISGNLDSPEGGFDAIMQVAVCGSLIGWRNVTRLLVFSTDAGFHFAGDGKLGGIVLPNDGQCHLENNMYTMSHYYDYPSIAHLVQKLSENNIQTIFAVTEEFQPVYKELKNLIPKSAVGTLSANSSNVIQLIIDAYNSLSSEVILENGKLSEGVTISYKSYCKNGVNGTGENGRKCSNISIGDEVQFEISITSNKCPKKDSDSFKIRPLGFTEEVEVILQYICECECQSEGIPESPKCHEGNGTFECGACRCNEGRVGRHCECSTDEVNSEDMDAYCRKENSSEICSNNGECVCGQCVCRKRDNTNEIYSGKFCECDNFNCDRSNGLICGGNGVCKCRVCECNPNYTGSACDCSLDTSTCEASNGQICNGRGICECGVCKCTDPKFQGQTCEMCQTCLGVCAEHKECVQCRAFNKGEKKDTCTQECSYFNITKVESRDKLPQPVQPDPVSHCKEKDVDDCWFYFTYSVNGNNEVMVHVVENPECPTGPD

B1: FAM-GreenB1 (ssDNA)
DNA: ATCCAGAGTGACGCAGCATGGGGGTAGTGGTGGTTAGGAGTGGAGGCGAGGAGAGCGGTGGACACGGTGGCTTAGT
On to B1, for which the Kd was 7 nM.
